Assay results taken from paper PMC12036983.

Target: hEAAT3-X (Hg2+-crosslinked Cys-mini K269C/W441C hEAAT3g, human excitatory amino acid transporter 3) (human) (UniProt P43005)
Test: cryo-EM structure; hEAAT3-X at ~5 mg/mL in 20 mM HEPES-Tris pH 7.4, 200 mM NaCl, 0.01% GDN with 10 mM L-Asp, D-Asp, R-2HG or L-Cys; maps refined with C3 symmetry

stoichiometry N: 3
Substance: hEAAT3-X (Hg2+-crosslinked Cys-mini K269C/W441C hEAAT3g, human excitatory amino acid transporter 3) (from UniProt P43005 1-524)
